Data as given in US20180335433A1, “COMPOSITIONS TARGETING PKC-THETA AND USES AND METHODS OF TREATING PKC-THETA PATHOLOGIES, ADVERSE IMMUNE RESPONSES AND DISEASES” (La Jolla Institute for Allergy and Immunology, priority 2011, published 2018).

Key:
endogenous PKCθ = assay: IS localization in OT-II CD4+ T cells conjugated with Ova-loaded APCs (confocal); type: cell-based, mouse; conditions: OT-II TCR-Tg CD4+ T cells
Protocol: (FIG. 6A) OT-II CD4^+ T cells were infected with retrovirus expressing Myc-tagged V3 domain, V3 mutated at P330/1/4/6A (V3-4PA), or PR motif-deleted V3 (V3-ΔPR). Infected cells (green) were harvested, stimulated, and fixed. Conjugates were stained with anti-Myc plus a secondary Alexa 555-coupled antibody (orange), and anti-PKCθ plus a secondary Alexa 647-coupled antibody (red). Cells were analyzed as in FIG. 1A. (FIG. 6B) Quantitative analysis of the results shown in (FIG. 6A) from 30-50 T-APC conjugates. ** p<0.05. (FIG. 6C) MCC-specific T hybridoma cells were cotransfected with indicated vector, together with RE/AP-Luc and β-Gal reporter plasmids. Cells were stimulated and analyzed as in FIG. 1C. (FIG. 6D) Naïve CD4^+ T cells from B6 mice stimulated with anti-CD3 plus anti-CD28 mAbs and differentiated in vitro under Th1-, Th2- or Th17-polarizing conditions were retrovirally transduced with empty pMIG vector, or with the indicated PKCθ V3 vectors. Cytokine-producing cells were analyzed by intracellular staining 8 h after restimulation. Right panels represent cumulative data showing percentage of cytokine-producing cells by intracellular staining. (FIG. 6E) MCC-specific T hybridoma cells were cotransfected with the indicated plasmids, together with NFAT luciferase reporter and a β-Gal reporter plasmid. Cells were incubated with fibroblasts that express I-E^K and B7-1 in the absence or presence of MCC peptide for 6 hrs. Normalized luciferase activity was determined in triplicates.
Full-length human PKCθ and its derivatives were cloned as a GFP fusion protein in the pMX retroviral vector. Retroviral supernatants were used to infect preactivated CD4^+ T cells from PKCθ^−/− or WT OT-II mice. Transduced cells were rested for an additional three days. On the day of experiment, APC were prepared from WT B6 splenocytes that were depleted of CD4^+ T cells using anti-CD4 (L3T4) mAb-coated beads. T-depleted APC were stained with 20 μM of cell tracker blue (CMAC) and then pulsed with 5 μM Ova peptide, respectively, for 30 min at 37° C. T cell-APC conjugation was carried out at 37° C. for 20 min before fixation with 4% paraformaldehyde and permeabilization with PBS supplemented with 1% BSA and 0.1% Triton X-100. […] Immunofluorescene images were captured using a Marianas digital fluorescence-microscopy system (Intelligent Imaging Innovations) as described (Becart, S. et al. Immunity 29, 704-719 (2008)).
Given the critical role of the PKCθ V3 domain in the enzyme's CD28 association, IS localization, and activation of downstream targets, ectopic expression of the isolated V3 domain was analyzed for interference with the localization and function of PKCθ in stimulated T cells. […]

[1] = test system: Naïve CD4+ T cells from B6 mice, Treg (FoxP3+) cells; assay: In vitro Treg (FoxP3+) differentiation of retrovirally transduced CD4+ T cells; type: cell-based, mouse; conditions: Treg-polarizing conditions (IL-2+TGFβ), GFP+FoxP3+ cells
Protocol: (§1) Naïve CD4+ T cells from B6 mice stimulated with anti-CD3 plus anti-CD28 mAbs and differentiated in vitro under Treg-polarizing conditions (IL-2+TGFβ) were retrovirally transduced with empty pMIG vector, or with the indicated PKCθ V3 vectors. Transduced (GFP+) cells were sorted and FoxP3+ cells were analyzed by intracellular staining.
as §1, with “CD4^+” for “CD4+”, “(GFP+)” for “(GFP+) cells were sorted and”, “intracellular staining 8 hours after restimulation. Right panels represent cumulative data showing percentage of GFP+FoxP3+ cells by intracellular” for “intracellular”

[2] = test system: Th2-mediated lung inflammation; assay: Th2-mediated Ova-induced airway inflammation after adoptive transfer of transduced OT-II Th2 cells; type: in vivo, mouse; conditions: transferred Th2 cells, aerosolized Ova 3 consecutive days
Source text: (FIG. 7A-7D) OT-II CD4^+ T cells stimulated with anti-CD3 plus anti-CD28 mAbs and differentiated in vitro under Th2 (FIG. 7A-7C) or Th1 (FIG. 7D, 7E)-polarizing conditions were retrovitrally transduced with the same PKCθ V3 vectors as in FIG. 6. Sorted GFP^+ populations were adoptively transferred into naïve B6 mice, which were challenged with aerosolized Ova for 3 consecutive days. BAL fluid were obtained 1 d post-challenge and analyzed for total mononuclear cell infiltration (FIG. 7A, 7D) and cytokine expression using IL-4 (FIG. 7B), IL-5 (FIG. 7C) and IFN-γ (FIG. 7E) ELISA.
CD4^+ T cells from OT-II B6 mice were isolated and cultured with plate-bound anti-CD3 (5 μg/ml), soluble anti-CD28 (2.5 μg/ml) and IL-2 (100 U/ml) under Th1 or Th2 polarizing conditions. The cells were retrovirally infected on days 2-4 and cultured for an additional 3 days. GFP^+ cells were sorted, and 1×10^6 cells were injected intravenously into naïve WT B6 mice. One day later, mice received aerosolized Ova (5 mg/ml in 20 ml PBS) for 30 min, once a day for 3 consecutive days, using ultrasonic nebulization. Mice were sacrificed 24 h after the last challenge and assessed for lung inflammation. Collection of BAL fluid and determination of cytokine levels were carried out as described (Salek-Ardakani, S. et al. J Immunol 173, 6440-6447 (2004)).
The above findings were extended to an in vivo antigen-specific inflammatory response in an airway inflammation model, using a T cell adoptive transfer system. Mice receiving OT-II Th2 cells transduced with an empty vector developed an inflammatory response by comparison with PBS-challenged control mice, as evidenced by a significant increase in the number of infiltrating leukocytes in the bronchoalveolar lavages (BAL) fluid (FIG. 7a) and in the levels of signature Th2 cytokines, IL-4 (FIG. 7b) and IL-5 (FIG. 7c).

B1: V3-4PA: V3 mutated at P330/1/4/6A (4 Pro residues in the Pro-rich motif to Ala) (protein)
chain: MSPFLRIGLSNFDCGSCQSCQGEAVNPYCAVLVKEYVESENGQMYIQKKPTMYPPWDSTFDAHINKGRVMQIIVKGKNVDLISETTVELYSLAERCRKNNGKTEIWLELKPQGRMLMNARYFLEMSDTKDMNEFETEGFFALHQRRGAIKQAKVHHVKCHEFTATFFPQPTFCSVCHEFVWGLNKQGYQCRQCNAAIHKKCIDKVIAKCTGSAINSRETMFHKERFKIDMPHRFKVYNYKSPTFCEHCGTLLWGLARQGLKCDACGMNVHHRCQTKVANLCGINQKLMAEALAMIESTQQARCLRDTEQIFREGPVEIGLPCSIKNEARAACLATAGKREPQGISWESPLDEVDKMCHLPEPELNKERPSLQIKLKIEDFILHKMLGKGSFGKVFLAEFKKTNQFFAIKALKKDVVLMDDDVECTMVEKRVLSLAWEHPFLTHMFCTFQTKENLFFVMEYLNGGDLMYHIQSCHKFDLSRATFYAAEIILGLQFLHSKGIVYRDLKLDNILLDKDGHIKIADFGMCKENMLGDAKTNTFCGTPDYIAPEILLGQKYNHSVDWWSFGVLLYEMLIGQSPFHGQDEEELFHSIRMDNPFYPRWLEKEAKDLLVKLFVREPEKRLGVRGDIRQHPLFREINWEELERKEIDPPFRPKVKSPFDCSNFDKEFLNEKPRLSFADRALINSMDQNMFRNFSFMNPGMERLIS
Q: Which “effect on IS localization of endogenous PKCθ” value (endogenous PKCθ) does the source give for B1 here?
A: Its value is “did not interfere with the IS localization of endogenous PKCθ”.

Q: And the “subcellular localization of the transduced V3 protein” value (endogenous PKCθ)?
A: Its value is “did not localize anymore in the IS”.

Q: What about the “promotion of Treg differentiation” value [1] of the same molecule?
A: The value was “not”.

Q: What about the “inhibition of the Th2 inflammatory response” value [2] of the same molecule?
A: The value was “partially rescued the inhibition”.
